Target: Tva-HA-Fc (chicken)
Assay: not given
Settings: not given

Substance	blocking of viral entry: % GFP-positive DF-1 cells (FACS) after incubation with the gp85 protein and infection with RCASBP (A)-EGFP; Tva on DF-1 cells (Figure 6C) (% GFP-positive cells)
E-gp85-flag wt (soluble gp85 of ALV-E ev-1) (natural protein)	31
A-gp85-flag wt (soluble gp85 of ALV-A RSA) (natural protein)	0.21

Target: Tva-HA-Fc
Assay: co-IP
Settings: parent: est. 1.0; read off a plot

Substance	ratio to parent
A-gp85-flag wt (soluble gp85 of ALV-A RSA) -155PWVNPF	0.07
A-gp85-flag wt (soluble gp85 of ALV-A RSA) -201NFD	0.8
A-gp85-flag wt (soluble gp85 of ALV-A RSA) -139S	0.73
A-gp85-flag wt (soluble gp85 of ALV-A RSA) -266S	0.43
